Laboratory results taken from paper PMC11774805, “The C-terminal α-helix is crucial for the activity of the bacterial ABC transporter BmrA” (The Journal of Biological Chemistry, 2024).
Residue numbers refer to the chain shown, from its start.

B1: Bacillus multidrug resistance ATP (BmrA) wt, full-length half-transporter (natural protein, Bacillus subtilis strain 168, UniProt O06967 1-589, looked up)
chain: MPTKKQKSKSKLKPFFALVRRTNPSYGKLAFALALSVVTTLVSLLIPLLTKQLVDGFSMSNLSGTQIGLIALVFFVQAGLSAYATYALNYNGQKIISGLRELLWKKLIKLPVSYFDTNASGETVSRVTNDTMVVKELITTHISGFITGIISVIGSLTILFIMNWKLTLLVLVVVPLAALILVPIGRKMFSISRETQDETARFTGLLNQILPEIRLVKASNAEDVEYGRGKMGISSLFKLGVREAKVQSLVGPLISLVLMAALVAVIGYGGMQVSSGELTAGALVAFILYLFQIIMPMGQITTFFTQLQKSIGATERMIEILAEEEEDTVTGKQIENAHLPIQLDRVSFGYKPDQLILKEVSAVIEAGKVTAIVGPSGGGKTTLFKLLERFYSPTAGTIRLGDEPVDTYSLESWREHIGYVSQESPLMSGTIRENICYGLERDVTDAEIEKAAEMAYALNFIKELPNQFDTEVGERGIMLSGGQRQRIAIARALLRNPSILMLDEATSSLDSQSEKSVQQALEVLMEGRTTIVIAHRLSTVVDADQLLFVEKGEITGRGTHHELMASHGLYRDFAEQQLKMNADLENKAG
notes: BmrA, ABC half-transporter of Bacillus subtilis strain 168, full length (last residue G589); Cloned into pET303-CT/His; source: E. coli, purified in presence of detergent (DDM)
B2: BmrA K579C (natural protein, Bacillus subtilis strain 168, UniProt O06967 1-589, looked up)
chain: B1 chain with K579C
notes: BmrA of Bacillus subtilis strain 168, full length, K579 replaced by Cys; Forms a disulfide-linked dimer without DTT; source: E. coli, purified in presence of detergent (DDM)
B3: BmrA M580C (natural protein, Bacillus subtilis strain 168, UniProt O06967 1-589, looked up)
chain: B1 chain with M580C
notes: BmrA of Bacillus subtilis strain 168, full length, M580 replaced by Cys; Forms a disulfide-linked dimer without DTT; source: E. coli, purified in presence of detergent (DDM)
B4: BmrA N581C (natural protein, Bacillus subtilis strain 168, UniProt O06967 1-589, looked up)
chain: B1 chain with N581C
notes: BmrA of Bacillus subtilis strain 168, full length, N581 replaced by Cys; Forms a disulfide-linked dimer without DTT; source: E. coli, purified in presence of detergent (DDM)
B5: BmrA A582C (natural protein, Bacillus subtilis strain 168, UniProt O06967 1-589, looked up)
chain: B1 chain with A582C
notes: BmrA of Bacillus subtilis strain 168, full length, A582 replaced by Cys; Forms a disulfide-linked dimer without DTT; source: E. coli, purified in presence of detergent (DDM)
B6: BmrA D583C (natural protein, Bacillus subtilis strain 168, UniProt O06967 1-589, looked up)
chain: B1 chain with D583C
notes: BmrA of Bacillus subtilis strain 168, full length, D583 replaced by Cys; Forms a disulfide-linked dimer without DTT; source: E. coli, purified in presence of detergent (DDM)

Molecular target: the molecule itself
Assay: cross-linking + native gel or EMSA; blue native PAGE of purified BmrA wt and Cys variants; 0.25 mg/ml preincubated ± 100 uM DTT for 30 min at room temperature, then DDM to 1%; no ATP; 4 to 16% Bis-Tris gel; dimer to monomers

| Protein | stoichiometry N |
| --- | --- |
| B1 | 2 |
| B2 | 2 |
| B3 | 2 |
| B4 | 2 |
| B5 | 2 |
| B6 | 2 |
